Measurements taken from PMC7331137.

How the values were obtained:
[1] = target: IntC-CCre tagged with FLAG (UniProt P06956)
[2] = target: IntC-CCre tagged with FLAG (UniProt P06956); remark: listed apart in the source
[3] = target: IntC-CCre tagged with FLAG (UniProt P06956); remark: listed apart in the source

In the case of “NCre-IntN tagged with HA (from UniProt P06956 1-59)”, the TdTomato fluorescence in striatal neurons of Dlx6-CCre-IRES-eGFP reporter mice injected with NCre-IntN-mTagBFP2 lentivirus [1] is reported as 78.3%, the TdTomato expression in neurons of the central amygdala after injection of FuG-E-NCre-IntN retrograde lentivirus into the dorsal striatum of Dlx6-CCre-IRES-eGFP::LoxP-stop-LoxP-TdTomato mice [2] is reported as 89.9% and the DsRed fluorescence from a LoxP-stop-LoxP DsRed reporter in HEK293T cells cotransfected with both constructs (none with either alone) [3] is reported as 99%.
